Laboratory results published in patent US20130065278A1 (SPIBER TECHNOLOGIES, published 2013).

T1: NT-REP4-CT
T1 construct: also called NT4RepCT; NT-REP4-CT fiber
T1 chain: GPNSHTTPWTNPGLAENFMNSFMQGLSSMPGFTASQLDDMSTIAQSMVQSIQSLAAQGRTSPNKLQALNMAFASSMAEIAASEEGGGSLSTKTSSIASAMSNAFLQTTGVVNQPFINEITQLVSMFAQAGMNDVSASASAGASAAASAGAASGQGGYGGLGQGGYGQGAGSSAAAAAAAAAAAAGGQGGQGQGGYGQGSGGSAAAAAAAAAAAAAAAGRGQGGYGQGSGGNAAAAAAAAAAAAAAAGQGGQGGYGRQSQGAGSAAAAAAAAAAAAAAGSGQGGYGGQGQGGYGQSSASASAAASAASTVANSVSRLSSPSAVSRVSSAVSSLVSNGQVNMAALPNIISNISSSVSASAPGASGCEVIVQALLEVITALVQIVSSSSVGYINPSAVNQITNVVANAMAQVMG

T2: NT2-REP4-CT
T2 construct: also called NTNT-REP4-CT; HisNTNT4RepCT
T2 chain: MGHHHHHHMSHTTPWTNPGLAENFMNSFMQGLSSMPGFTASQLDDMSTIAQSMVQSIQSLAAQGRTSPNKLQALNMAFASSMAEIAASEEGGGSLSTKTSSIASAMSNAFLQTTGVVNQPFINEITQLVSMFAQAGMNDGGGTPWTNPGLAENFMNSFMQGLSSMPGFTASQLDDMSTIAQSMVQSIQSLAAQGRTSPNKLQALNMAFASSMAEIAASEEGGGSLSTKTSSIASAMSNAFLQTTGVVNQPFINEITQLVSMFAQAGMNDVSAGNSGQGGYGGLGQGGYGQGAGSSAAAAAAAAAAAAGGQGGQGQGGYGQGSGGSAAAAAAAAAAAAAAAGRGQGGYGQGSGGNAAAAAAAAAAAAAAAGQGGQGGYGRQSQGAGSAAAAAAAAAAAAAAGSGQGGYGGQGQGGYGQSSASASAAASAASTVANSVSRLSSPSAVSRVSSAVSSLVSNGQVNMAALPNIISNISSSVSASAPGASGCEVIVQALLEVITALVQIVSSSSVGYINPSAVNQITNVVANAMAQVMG


How the values were obtained:
NT-REP4-CT = target: T1, NT-REP4-CT; assay: capture of soluble protein on fiber at pH 6, release at pH 7, SDS-PAGE; 300 mM NaCl decreased capture
Description: (§1) Fibers (˜0.5 cm long, ˜50 μg) of NT-REP₄-CT (SEQ ID NO 20), NT₂-REP₄-CT (SEQ ID NO 23) and REPO-CT (SEQ ID NO 2, control) were submerged in 100 μl solution of 5 mg/ml soluble NTHis (SEQ ID NO 32) or NT₂-Brichos (SEQ ID NO 34) at pH 8 for 10 minutes. The pH was decreased by addition of 400 μl sodium phosphate buffer (NaP) to pH 6 and incubated for 10 minutes to allow assembly of soluble NT to the fiber. The fibers were transferred to 500 μl of NaP at pH 6, and washed twice. Finally, the fibers were transferred to 500 μl of NaP at pH 7, and incubated 10 minutes to allow release of soluble NT. The same was done in the presence of 300 mM NaCl in all pH 6 NaP buffers. Samples from the different solutions were analysed on SDS-PAGE.

NT2-REP4-CT = target: T2, NT2-REP4-CT; assay: as above
Description: as §1

Binder | binding result (NT-REP4-CT) | binding result (NT2-REP4-CT)
NTHis (other, also called soluble NTHis; NT protein) MSHTTPWTNPGLAENFMNSFMQGLSSMPGFTASQLDDMSTIAQSMVQSIQSLAAQGRTSPNKLQALNMAFASSMAEIAASEEGGGSLSTKTSSIASAMSNAFLQTTGVVNQPFINEITQLVSMFAQAGMNDVSASASAGASAAASAGAAALEHHHHHH | binds | binds
NT2-Brichos (other, also called NT-NT-Brichos; HisNTNTBrichos) MGHHHHHHMSHTTPWTNPGLAENFMNSFMQGLSSMPGFTASQLDDMSTIAQSMVQSIQSLAAQGRTSPNKLQALNMAFASSMAEIAASEEGGGSLSTKTSSIASAMSNAFLQTTGVVNQPFINEITQLVSMFAQAGMNDGGGTPWTNPGLAENFMNSFMQGLSSMPGFTASQLDDMSTIAQSMVQSIQSLAAQGRTSPNKLQALNMAFASSMAEIAASEEGGGSLSTKTSSIASAMSNAFLQTTGVVNQPFINEITQLVSMFAQAGMNDVSAGNSEHLVTTATFSIGSTGLVVYDYQQLLIAYKPAPGTCCYIMKIAPESIPSLEALTRKVHNFQMECSLQAKPAVPTSKLGQAEGRDAGSAPSGGDPAFLGMAVSTLCGEVPLYYI | binds | binds
